Patent US20240384326

Columns and labels:
[1] = target: APOBEC3A (E109A/E109Q as variously stated), no fusion E109A (Homo sapiens) (UniProt P31941); experiment: cleavage_in_vitro; details: USER assay, 10 mM MgCl2, pH 7, 37C
[2] = tested on: anti-m6A antibody Ab01; experiment: ELONA
[3] = tested on: anti-m6A antibody Ab02; experiment: ELONA
[4] = tested on: Ab05 randomly labeled with DNA adapter (HyNic); experiment: ELONA; details: m6A at position 9; random HyNic labeling
[5] = tested on: anti-m6A antibody Ab05; experiment: ELONA
[6] = tested on: anti-m5C antibody Ab16; experiment: ELONA
[7] = tested on: anti-inosine antibody Ab10; experiment: ELONA
[8] = tested on: anti-pseudouridine antibody Ab11; experiment: ELONA; details: unmodified control
[9] = tested on: anti-pseudouridine antibody Ab19; experiment: ELONA; details: unmodified control
[10] = m6A at position 9, plate ELISA, avidity, stated only as subnanomolar

Sequence of APOBEC3A (E109A/E109Q as variously stated), no fusion E109A (Homo sapiens) (P31941 whole entry E109A, the tested form may be a part): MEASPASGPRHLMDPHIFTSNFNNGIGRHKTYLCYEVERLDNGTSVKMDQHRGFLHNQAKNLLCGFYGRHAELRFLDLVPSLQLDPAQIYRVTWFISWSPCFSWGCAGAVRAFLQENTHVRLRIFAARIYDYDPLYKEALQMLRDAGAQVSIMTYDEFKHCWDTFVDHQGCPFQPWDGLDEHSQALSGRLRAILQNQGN

FAM-DNA oligonucleotide with a single central C
activity (fold vs APOBEC1) [1]: > 10

NNNNNNNNANNNNNNNN [m6A degenerate RNA (SEQ ID NO: 1)]
Kd ([2]; m6A at position 9, plate ELISA, immobilised RNA, avidity, stated only as subnanomolar, 22C): < 1 nM
Kd [3, 10]: < 1 nM
binding signal (fold loss of KD vs unlabeled Ab05) [4]: > 15
Kd [5, 10]: < 1 nM

NNNNNNNNCNNNNNNNN [m5C degenerate RNA (SEQ ID NO: 4)]
Kd ([6]; m5C at position 9, plate ELISA, avidity, stated only as subnanomolar): < 1 nM

NNNNNNNNINNNNNNNN [inosine degenerate RNA (SEQ ID NO: 2 in Table 4)]
Kd ([7]; inosine at position 9, plate ELISA, avidity, stated only as subnanomolar): < 1 nM

NNNNNNNNNNNNNNNN [unmodified degenerate reference RNA (SEQ ID NO: 5)]
binding signal (fold weaker than cognate) [8]: 10
binding signal (fold weaker than cognate) ([2]; unmodified control): > 100
binding signal (fold weaker than cognate) ([3]; unmodified control): > 100
binding signal (fold weaker than cognate) [9]: 10
binding signal (fold weaker than cognate) ([6]; unmodified control): > 100
binding signal (fold weaker than cognate) ([7]; unmodified control): > 100
binding signal (fold weaker than cognate) ([5]; unmodified control): > 100
